According to PMC12583524 (Nature Communications, 2025):

B1: C37 Fab (papain digestion of the mAb) (Fab, V domains shown)
VH: QVQLQESGPGLVKPSETLSLTCTVSGGSIGSSSYYWGWIRQPPGKGLQWIGSFHYSGTTYYNPSLKSRVTISVDTSKNHFSLKLSSVTAADTAVYYCASRQNWNDGYFDYWGQGTLVTVSS
VL: DIQMTQSPATLSLSPGERATLFCRASQSVSSSLAWYQQKPGQAPRLLIYDASNRATGIPARFSGSGSGTDFTLTISSLEPEDFAVYYCQQRGNWPPITFGQGTRLDTK
B2: C37 Fab (recombinant, His-tag on the heavy chain) (Fab, V domains shown)
VH: B1 VH
VL: B1 VL
B3: C37 IgG (antibody, V domains shown)
VH: B1 VH
VL: B1 VL
B4: C34 Fab (papain digestion of the mAb) (Fab, V domains shown)
VH: EVQLVESGGGLVQPGRSLRLSCAASGFTFDDYAMHWVRQAPGKGLEWVSGISWNSGSIGYADSVKGRFTISRDNAKNSLYLQMNSLRAEDTALYYCAKDMGYSGNDDYYGMDVWGQGTTVTVSS
VL: DIQLTQSPSSLSASVGDRVTITCRASQRISSYLNWYQQKPGKAPKLLIYGAFSLQSGVPSRFSGSGSGTDFTLTISSLQPEDFATYYCQQSYRTLTRTFGQGTKVEIK
B5: C34 Fab (recombinant, His-tag on the heavy chain) (Fab, V domains shown)
VH: B4 VH
VL: B4 VL
B6: C34 IgG (antibody, V domains shown)
VH: B4 VH
VL: B4 VL

Assays:
[1] = biological target: recombinant CHIKV E1–E2 fusion protein (Chikungunya virus, sequence as …); experiment: SPR
[2] = biological target: T1, CHIKV VLP (strain 119067) (Chikungunya virus, strain 119067, UniProt A0A1I9WLN7); experiment: cryo-EM structure
[3] = biological target: T1, CHIKV VLP (strain 119067); experiment: dynamic light scattering

Binder | Kd [1] | binding result [2] | binding result [3]
B1 | < 1 nM |  | 
B2 |  | binds | 
B3 |  |  | binds
B4 | < 1 nM |  | 
B5 |  | binds | 
B6 |  |  | binds
